The test system of the data set is MS2 coat protein. The data set is described as follows: apparent KD of MS2 coat protein; designed switch direction (-1 OFF switch, 1 ON switch): 1; higher = weaker reporter binding. The method, boiled down:
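Three titration conditions were used: no input, 200 uM small-molecule ligand, and an oligonucleotide input. In each, SNAP-549-labelled MS2 coat protein was raised from 0.7 or 1.5 nM, doubling, to 3 µM over designed RNA switches transcribed on Illumina chips by stalled E. coli RNA polymerase. Curve fits of normalised cluster fluorescence gave values whose per-design median over clusters is the apparent KD.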

The mark [1] stands for this setting: Eterna round: R95, input ligand: microRNA oligo, concentration not stated.
Where [2] appears, read: input ligand: microRNA oligo, concentration not stated.
Setting [3] is: Eterna round: R95, input ligand: FMN 200 uM.
Setting [4] is: Eterna round: R95, input ligand: none.

As to “CUCAAACAUGAGGAUCACCCAUGUGUUGUCAUGGGAGGAUAUCUAAGUUCAUUGUAUUCGGGAGAAGGCCUAUGUC [× ×•×ª×• ×ž×“×™× ×” × ×—×ª-09] (puzzle: Same State 1)”, the “apparent KD of MS2 coat protein” value under setting [1] worked out at 362 nM.

As to “CUGACAUGUCAAGGAUAUCACGUCGAUUAGACGUGAGAAGGUGAUCUACACAUGAGGAUCACCCAUGUGUUACGUGGGAGUCAG [Brourd's SSNG1/1-A2 mod 19] (Eterna round: R96, puzzle: Same State NG 1)”, the “apparent KD of MS2 coat protein” value was 54.9 nM (input ligand: FMN 200 uM), 113 nM under setting [2] and 162 nM (input ligand: none).

Consider “CUGAGCAAUCGAGGAUAUCACGUCGUUUAGACGUGAGAAGGCGAUCAUAACAUGAGGAUCACCCAUGUAUUACAUGAAGCUCAG [SSNG1/4-A3] (Eterna round: R96, puzzle: Same State NG 1)”, for which the “apparent KD of MS2 coat protein” value reads like this: (input ligand: FMN 200 uM) 13.6 nM; under setting [2], 10.1 nM; (input ligand: none) 13.3 nM.

Take “CUGAGCGAUCUAGGAUAUCACGUCGAUUAGACGUGAGAAGGAGAUCAUAACAUGAGGAUCACCCAUGUAUUACAUGAAGCUCAG [SSNG1/6-A2] (Eterna round: R96, puzzle: Same State NG 1)”: the “apparent KD of MS2 coat protein” value (input ligand: FMN 200 uM) was 17.6 nM, the “apparent KD of MS2 coat protein” value under setting [2] worked out at 9.15 nM and the “apparent KD of MS2 coat protein” value (input ligand: none) was found to be 19.6 nM.

As for “CUUUAUCACUAUACAUGAGGAUCACCCAUGUUAUCAUCAUGAGAGGAUAUCGUAUUUGGAUUUUUCGAGAAGGCUCUUUUGUAU [JR_SSNG3_Sub076] (Eterna round: R96, puzzle: Same State NG 3)”, under setting [2], the “apparent KD of MS2 coat protein” value worked out at 90.4 nM.

As to “CUUUUUAAUGCAGGAUAUGAUCAACAUGAGGAUCACCCAUGUGGUGUUGUGAGUAAGGAGAGUGAUCAGAAGGGCAUCUUUUCA [SS-NG2-LRO04] (Eterna round: R96, puzzle: Same State NG 2)”, the “apparent KD of MS2 coat protein” value is, setting by setting: (input ligand: FMN 200 uM) 737 nM; under setting [2], 415 nM; (input ligand: none) 435 nM.

“CUUUUUAGUGCAGGAUAUGAUCAACAUGAGGAUCACCCAUGUGGCGUUGUGAGUAGGGAGAGUGAUCAGAAGGGCGUCUCCUCG [SS-NG2-LRO10] (Eterna round: R96, puzzle: Same State NG 2)”: the “apparent KD of MS2 coat protein” value reads like this: (input ligand: FMN 200 uM) 40.7 nM; under setting [2], 55.7 nM; (input ligand: none) 39.2 nM.

Take “GAAAAACAUGAGGAUCACCCAUGUGUAAACAAGGGAGGAUAUACAAAGACGUAAGUCAAAGUAGAAGGCCUAAAAG [Garnet 38] (Eterna round: R96, puzzle: Same State 1)”: the “apparent KD of MS2 coat protein” value runs as follows: (input ligand: FMN 200 uM) 19.6 nM; under setting [2], 54.3 nM; (input ligand: none) 71.8 nM.

“GAAAAGGCGACGCAGGAUAUGAAAGGUGAAACAUGAGGAUCACCCAUGUGCUACCUUCCGAUAAAUCAGAAGGGCGACGCCUAGA [Azaanre] (puzzle: Same State 2)”: the “apparent KD of MS2 coat protein” value by setting is: under setting [3], 11.4 nM; under setting [1], 9.79 nM; under setting [4], 11.3 nM.

Regarding “GAAUAAGUUUACGAGGAUAUGUUCCGCAUAACAUGAGGAUCACCCAUGUGAACAAGAAAGGCGACGCAGAAGGCGUGAGCAGAAG [Mat - Same State 2 - Mod of UCT - D100] (puzzle: Same State 2)”, the “apparent KD of MS2 coat protein” value runs as follows: under setting [3], 23 nM; under setting [1], 11.4 nM; under setting [4], 117 nM.

With “GAAUAGUUGAGAGGAUAUCUAUGAUAAAAGGAUAGAGAAGGUUUUAACAUGAGGAUCACCCAUGUAGGACUAUAUAUGUGAAUA [Parity 82 - Jieux - Same State NG 1] (Eterna round: R96, puzzle: Same State NG 1)”, the “apparent KD of MS2 coat protein” value runs as follows: (input ligand: FMN 200 uM) 12.5 nM; under setting [2], 11.9 nM; (input ligand: none) 16.9 nM.

Regarding “GAAUAGUUGAGAGGAUAUCUAUUAUAAAAGGAUAGAGAAGGUUUUAACAUGAGGAUCACCCAUGUAGGACUAUAUAUGUGAAUA [Parity 100 - Jieux - Same State NG 1] (Eterna round: R96, puzzle: Same State NG 1)”, the “apparent KD of MS2 coat protein” value runs as follows: (input ligand: FMN 200 uM) 16.2 nM; under setting [2], 13.6 nM; (input ligand: none) 16.1 nM.

In the case of “GACCGCGAGGAAGGAUAUGGAGCCUAAUAGGCUCCAGAAGGUCCAUAAAGGACAUGAGGAUCACCCAUGUGGGCUGAAGCGGUC [Mat - Same State NG 1 - JL mod - D74] (Eterna round: R96, puzzle: Same State NG 1)”, the “apparent KD of MS2 coat protein” value by setting is: (input ligand: FMN 200 uM) 18.3 nM; under setting [2], 21.4 nM; (input ligand: none) 34.7 nM.

With “GACUAUCUAUCUCAGGAUAUCAUGUCAAAGACAUGAGGAUCACCCAUGUACCAGGAAACUGGUUAUGAGAAGGGAGAUAGAUAGA [Mat - Same State 2 - Mod - D44] (puzzle: Same State 2)”, the “apparent KD of MS2 coat protein” value reads like this: under setting [3], 130 nM; under setting [1], 58.1 nM; under setting [4], 991 nM.

Take “GAGAGAGGGCGAGGAUAUUCGGUGAUAAUGAUGGAAGAAGGCGCAGACAUGAGGAUCACCCAUGUGGGAAUAAUCCAGAGAGAG [Parity 14 - Jieux - Same State NG 1] (Eterna round: R96, puzzle: Same State NG 1)”: the “apparent KD of MS2 coat protein” value worked out at 206 nM (input ligand: FMN 200 uM), 101 nM under setting [2] and 131 nM (input ligand: none).

As to “GAGAGAGGGUGAGGAUAUUUAGUGAUAAUGAUAAAAGAAGGCACAGACAUGAGGAUCACCCAUGUGGGAAUAAUCCAGAGAGAG [Parity 4 - Jieux - Same State NG 1] (Eterna round: R96, puzzle: Same State NG 1)”, the “apparent KD of MS2 coat protein” value under setting [2] is 238 nM.

On to “GAGAGGAUAUGGAGAGGAUCACCCUCUAGAAGGCUCGAAGGAGAGGAUAUGGAGAGGAUCACCCUCUAGAAGGCUCACUUCUCU [pwkr ssNG3 DX 2xF5 +2xFMN.6] (Eterna round: R96, puzzle: Same State NG 3)”, for which the “apparent KD of MS2 coat protein” value by setting is: (input ligand: FMN 200 uM) 256 nM; under setting [2], 105 nM; (input ligand: none) 156 nM.

Take “GAGCCAGUCCGAGGAUAUUCAUAUUAACAUGAGGAUCACCCAUGUAGGCUCAGAAAGGAGCCUUGGGAGAAGGCGGACUGGCUC [Xeonanisa<<2] (Eterna round: R96, puzzle: Same State NG 2)”: the “apparent KD of MS2 coat protein” value reads like this: (input ligand: FMN 200 uM) 14.9 nM; under setting [2], 114 nM; (input ligand: none) 251 nM.

Turning to “GAGCCAGUCCGAGGAUAUUCGUAGUACCACAUGAGGAUCACCCAUGUGGGCUCAGAAGAGCCCUUGGAGAAGGCGGGCUGGCUC [SS-NG2-LRO20] (Eterna round: R96, puzzle: Same State NG 2)”, the “apparent KD of MS2 coat protein” value by setting is: (input ligand: FMN 200 uM) 9.67 nM; under setting [2], 5.99 nM; (input ligand: none) 12.4 nM.

“GAGCCAGUCCGAGGAUAUUCGUAUUAACACAUGAGGAUCACCCAUGUGGGCUCAGAAGAGCCCUGGGAGAAGGCGGGCUGGCUC [SS-NG2-LRO17] (Eterna round: R96, puzzle: Same State NG 2)”: the “apparent KD of MS2 coat protein” value (input ligand: FMN 200 uM) was found to be 11.8 nM, the “apparent KD of MS2 coat protein” value under setting [2] was found to be 30.9 nM and the “apparent KD of MS2 coat protein” value (input ligand: none) is 48.4 nM.

As for “GAGGGACAGACCAACAUGAGGAUCACCCAUGUCCUCGCAGGUCAGGAUAUCAUGAGGAUCACCCAUGAGAAGGGACGGUGAACC (Eterna round: R96, puzzle: Same State NG 3)”, the “apparent KD of MS2 coat protein” value reads like this: (input ligand: FMN 200 uM) 155 nM; under setting [2], 125 nM; (input ligand: none) 149 nM.

Turning to “GAGUGGUUGGGAGGAUAUGCAUUGUUAUUAAAUGCAGAAGGUUUUAACAUGAGGAUCACCCAUGUAGGACUAUUCCUGUGUUUC [Parity 68 - Jieux - Same State NG 1] (Eterna round: R96, puzzle: Same State NG 1)”, the “apparent KD of MS2 coat protein” value under setting [2] came to 12.6 nM.

Turning to “GAGUUACAUGAGGAUCACCCAUGUUGUUGUGGAUAAGGAUAUAUGGUAGGAAGAGGAAUGAUAGAAGGUAUUAGGG [JR_SS1_Sub064] (puzzle: Same State 1)”, the “apparent KD of MS2 coat protein” value under setting [1] came to 34.7 nM.

Take “GAUAAACAUGAGGAUCACCCAUGUAAUAAUAUGGGAGGAUAUCAGAAUGUAUGUAUGUAAUGAGAAGGCCUAAUAG [Mat - Same State 1 - Mod of Eli - D72] (puzzle: Same State 1)”: the “apparent KD of MS2 coat protein” value worked out at 76.7 nM under setting [3], 229 nM under setting [1] and 391 nM under setting [4].

“GAUAAACAUGAGGAUCACCCAUGUGUGAAUAUGGGAGGAUAUACGUGGACCGUAGUCCGCGUAGAAGGCCUAAUUG [Mat - Same State 1 - Mod of JL - D20] (puzzle: Same State 1)”: under setting [1], the “apparent KD of MS2 coat protein” value came out at 166 nM.

“GAUUAACAUGAGGAUCACCCAUGUCGUUAAAUGGGAGGAUAUACGUGGACCGUAGUCCGCGUAGAAGGCCUAAUUG [Mat - Same State 1 - Mod of JL - D22] (puzzle: Same State 1)”: the “apparent KD of MS2 coat protein” value under setting [1] was 101 nM.

Regarding “GAUUAACAUGAGGAUCACCCAUGUGUGAAUAUGGGAGGAUAUACGUGGACCGUAGUCCGCGUAGAAGGCCUAAUUG [JL-ss1-3.20 janelle mod] (puzzle: Same State 1)”, the “apparent KD of MS2 coat protein” value under setting [1] stood at 223 nM.

For “GCACUCCUAGGAGCUGCGACAUGAGGAUCACCCAUGUAAUCACAGGAUAUGCAAUUCUGAAUUUUGCAGAAGGGUGAUAGGAAA [Zausorbi] (Eterna round: R96, puzzle: Same State NG 3)”, the “apparent KD of MS2 coat protein” value by setting is: (input ligand: FMN 200 uM) 413 nM; under setting [2], 270 nM; (input ligand: none) 263 nM.

With “GCAGGACAUGAGGAUCACCCAUGUCUCAAAUAUUGAGGAUAUGGACACGGUAUAUCCGAACCAGAAGGCAACCUGC [SS1 Teenbexe 20] (Eterna round: R96, puzzle: Same State 1)”, the “apparent KD of MS2 coat protein” value worked out at 38.9 nM (input ligand: FMN 200 uM), 31.5 nM under setting [2] and 43.7 nM (input ligand: none).

The values are drawn from the supplement of paper PMC9170038.
